Reference: article PMC5542595

Biological target: Leptospira interrogans heme oxygenase, wild type, ferric heme complex (Leptospira interrogans)
Assay: cross-linking

For “Leptospira interrogans ferredoxin-NADP+ reductase, wild type (enzyme)”, the stoichiometry N was 1.
